Laboratory results taken from publication PMC12823420 (Nature, 2024).
Where no end group is shown, it is not given here.

Experiments:
Settings in all cases: both partners purified
[1] = target: T1, UAP56 (human, UniProt Q13838 1-428); experiment: pull-down
T1 construct: The methods name 6×His-TwinSTREPII-3C-UAP56 and 10×His-3C-UAP56; also called DDX39B; DDX39

[2] = target: T1, UAP56; experiment: pull-down; MBP-tagged full-length or truncated ALYREF (2.5 µM) on amylose resin with 12.5 µM UAP56, UCM-1, N-UBM or C-UBM or 6 µM full-length SARNP; with or without 1 mM ATP and 200 µM 15 U RNA; Coomassie
[3] = target: T1, UAP56; experiment: grating-coupled interferometry (GCI); biotinylated UBM or UCM peptides captured on a streptavidin chip; UAP56 injected; 25 mM HEPES pH 7.9, 50 mM KCl, 1 mM MgCl2, 1 mM TCEP, 25 °C; one-to-one model; UCM peptides also with AMP-PNP or AMP-PNP and 15 U RNA
[4] = target: T2, Flag-tagged UAP56 (human, UniProt Q13838 1-428); experiment: pull-down; Flag-tagged UAP56 (5 µM) on anti-Flag M2 beads with WT or mutant SARNP (20 µM); buffer A2, room temperature 1 h; Coomassie
T2 construct: Used in an in vitro pull-down analysed by Coomassie staining

B1: 10×His-SUMO-3V5-tagged SARNP UCM-1 (residues 82-115) (peptide)
chain: VDVAAEKKVVKITSEIPQTERMQKRAERFNVPVS
notes: also called Sumo-V5–UCM-1; SUMO-V5-3C–UCM; source: E. coli BL21 DE3 RIL, purified (HisTrap, HiTrapQ, Superdex 75)
binding result [1]: binds

B2: MBP-tagged ALYREF^C (residues 106–257) (domain or fragment)
chain: not shown
notes: also called ALYREF harbouring only a C-UBM
binding result [2]: binds

B3: MBP-tagged ALYREF^N (residues 1–182) (domain or fragment)
chain: not shown
notes: also called ALYREF construct harbouring only an N-UBM
binding result [2]: binds

SISRKSEDDEKLKKRKERFGIVTS (also: biotinylated, site not given here) [SARNP UCM-4 peptide, biotinylated]
Kd [3]: 10 to 20 µM

B4: SARNP-6×His (full-length SARNP) (natural protein, human, UniProt P82979 1-210, looked up)
chain: MATETVELHKLKLAELKQECLARGLETKGIKQDLIHRLQAYLEEHAEEEANEEDVLGDETEEEETKPIELPVKEEEPPEKTVDVAAEKKVVKITSEIPQTERMQKRAERFNVPVSLESKKAARAARFGISSVPTKGLSSDNKPMVNLDKLKERAQRFGLNVSSISRKSEDDEKLKKRKERFGIVTSSAGTGTTEDTEAKKRKRAERFGIA
notes: SARNP, human; also called CIP29; recombinant full length SARNP; source: E. coli BL21 DE3 RIL, purified (HisTrap, HiTrapQ, Superdex 200)
binding result [4]: binds

B5: MBP-SARNP^47–210-3C-3V5-SUMO-10×His (domain or fragment, human, UniProt P82979 47-210, looked up)
chain: EEEANEEDVLGDETEEEETKPIELPVKEEEPPEKTVDVAAEKKVVKITSEIPQTERMQKRAERFNVPVSLESKKAARAARFGISSVPTKGLSSDNKPMVNLDKLKERAQRFGLNVSSISRKSEDDEKLKKRKERFGIVTSSAGTGTTEDTEAKKRKRAERFGIA
notes: SARNP, human, residues 47-210; also called MBP-SARNP residues 47-210; SARNP lacking the N-terminal SAP domain; source: E. coli BL21 DE3 RIL, purified; not shown: MBP, N-terminal, kept
binding result [4]: binds
